Some targets named below: SC37.78; SC37.23; rSC37.17; rSC37.67; SC37.9; rSC37.39.
Assay in all cases: SPR
A general note: Surface plasmon resonance follows binding to a sensor surface in real time, without labels.

Experiment [1] has as its target T1, monomeric hRNF43-His antigen (UniProt Q68DV7 24-197).
T1 chain: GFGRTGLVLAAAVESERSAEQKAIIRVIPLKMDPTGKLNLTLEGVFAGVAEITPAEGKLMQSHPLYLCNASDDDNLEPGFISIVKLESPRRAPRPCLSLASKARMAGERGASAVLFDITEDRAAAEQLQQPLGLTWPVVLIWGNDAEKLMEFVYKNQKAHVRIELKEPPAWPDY

For experiment [2], the target named is T1, monomeric hRNF43-His antigen.
Experiment [3] shares this target.
Experiment [4] has the same target.

Read-outs that look alike come from different tables or passages of the source.

B1: hSC37.39 (antibody, V domains shown)
VH: QVQLVQSGAEVKKPGASVKVSCKASGYTFTTYTIHWVRQAPGQGLEWMGYINPRSGYTEYNQKFQDRVTMTRDTSTSTVYMELSSLRSEDTAVYYCARSYEFWGQGTTVTVSS
VL: EIVMTQSPATLSVSPGERATLSCKASQNVGINVAWYQQKPGQAPRALIYSASYRYSGIPARFSGSGSGTEFTLTISSLQSEDFAVYYCHQYKTYPYTFGGGTKVEIKR
Usually Kd stands for the constant that tells how readily two partners part at equilibrium. Read a low Kd as higher affinity. In experiment [1], B1 registered a Kd of 0.34 nM.

B2: SC37.17 (antibody, V domains shown)
VH: EVQLQQSGADLVKPGASVKLSCTGSGFNIKDTYIHWVRQRPEQGLEWIGRIDPANGKANYDPKFQGKATMTADTSSKTVYVQLSSLTSEDTAVYYCALGGGYYGMDYWGRGTSVTVSS
VL: NIVLTQSPASLAVSLGQRATISCRASESVDSYGNSFMHWYQQKPGQPPKLLIYLASNLESGVPARFSGSGSRTDFTLTIDPVEADDAATYYCQQNNEDPLTFGAGTKLELK
As for B2, binding in experiment [2] was characterised by a dissociation constant (Kd) of 9.3 nM.

B3: hSC37.67 (antibody, V domains shown)
VH: QVQLVQSGAEVKKPGASVKVSCKASGYTFTRYWIEWVRQAPGQRLEWMGEILPGSGSTNYNEKFKGRVTITADTSASTAYMELSSLRSEDTAVYYCERRGAYWGQGTLVTVSS
VL: DIQMTQSPSSLSASVGDRVTITCKASEDIYNRLAWYQQKPGKAPKLLISGATSLETGVPSRFSGSGSGTDYTLTISSLQPEDFATYYCQQNWSTPPTFGGGTKVEIKR
B3 came in with a Kd in [3] of 4.2 nM. That is a single-digit nanomolar value.

B4: SC37.3 (antibody, V domains shown)
VH: QIQLVQSGPELKKPGETVKISCKASGYTFTNYGMNWVRQAPGKGLKWVGWINTNTGEPTYADDFKGRFAFSLETSASTAYLQISNLKNEDMSTYFCAGSHDYSFAYWGQGTLVTVSA
VL: QAVVTQESALTTSPGETVTFTCRSSTGAVTTSNYANWVQEKPDHLFTGLIGGTNNRAPGVPARFSGSLIGDKAALTITGAQTEDEAIYFCALWYSNHWVFGGGTKLTVL
B4: in [4], the Kd came to 44 nM.

B5: SC37.2 (antibody, V domains shown)
VH: EVNLVESGGGLVQPGGSLRLSCATSGFTFSDFDMEWVRQPPGKRLEWIAASRNKANDYTTQYSASVKGRFIVSRDTSQSIVYIQMNALRAEDTAIYYCARDRYDYALDYWGQGTSVTVSS
VL: DIVMSQSPSSLAVSVGEKVTMSCKSSQTLLYYSNQKNYLAWYQRKPGLSPKLLIYWASTRDSGVPDRFTGSGSGTDFTLTISSVKAEDLAVYYCQQYYNYPLTFGAGTKLELK
Consider B5, for which the Kd in experiment [4] stood at 220 nM.

B6: RNF43 (other)
chain: GFGRTGLVLAAAVESERSAEQKAIIRVIPLKMDPTGKLNLTLEGVFAGVAEITPAEGKLMQSHPLYLCNASDDDNLEPGFISIVKLESPRRAPRPCLSLASKARMAGERGASAVLFDITEDRAAAEQLQQPLGLTWPVVLIWGNDAEKLMEFVYKNQKAHVRIELKEPPAWPDY
For the molecule B6, the Kd with SC37.78 is 10.8 nM; in the experiment with SC37.23, 23.7 nM; with rSC37.17, 9.3 nM; in the experiment with rSC37.67, 5.4 nM; in the experiment with SC37.9 it was 160 nM; with rSC37.39, 1 nM.

B7: hSC37.2 (antibody, V domains shown)
VH: EVQLVESGGGLVQPGGSLRLSCAASGFTFSDFDMEWVRQAPGKGLEWVGASRNKANDYTTQYSASVKGRFTISRDTSKNSLYLQMNSLKTEDTAVYYCARDRYDYALDYWGQGTTVTVSS
VL: DIQMTQSPSSLSASVGDRVTITCKSSQTLLYYSNQKNYLAWYQQKPGKVPKLLIYWASTRDSGVPSRFSGSGSGTDFTLTISSLQPEDVATYYCQQYYNYPLTFGQGTKLEIKR
Consider B7, for which the Kd in experiment [4] amounted to 120 nM. This lies in the sub-micromolar range.

B8: SC37.67 (antibody, V domains shown)
VH: QVQLQQSGAELMKPGASVKISCKATGYTFSRYWIEWVKQRPGHGLEWIGEILPGSGSTNYNEKFKGKATFTADTSSNTAYMQLTSLTSEDSAVYFCERRGAYWGQGTLVTVSA
VL: DIQMTQSSSSFSVSLGDRVTITCKASEDIYNRLAWYQQKPGNAPRLLISGATSLETGVPSRFSGSGSGKDYTLSITSLQTEDVATYHCQQNWSTPPTFGGGTKLEIK
Consider B8, for which the Kd in [3] was 3.5 nM.

B9: SC37.39 (antibody, V domains shown)
VH: QVQLQQSAAELARPGASVKMSCKASGYTFTTYTIHWVKQRPGQGLKWIGYINPRSGYTEYNQKFQDKTTMTSDNSSSTAYIQLSSLTSEDSAVYYCARSYEFWGQGTTLTVSS
VL: DIVMTQSQKFMSTSGGDRVSVTCKASQNVGINVAWYQQKPGQSPKALIYSASYRYSGVPNRFTGSGSGTDFTLTISNVQSEDLGDYFCHQYKTYPYTFGGGTKLEIK
For B9, the Kd in experiment [1] came to 1.1 nM.

B10: hSC37.17 (antibody, V domains shown)
VH: QVQLVQSGAEVKKPGASVKVSCKASGFNIKDTYIHWVRQAPGQGLEWMGRIDPANGKANYDPKFQGRVTMTRDTSTSTVYMELSSLRSEDTAVYYCALGGGYYGMDYWGQGTLVTVSS
VL: DIVMTQSPDSLAVSLGERATINCRASESVDSYGNSFMHWYQQKPGQPPKLLIYLASNLESGVPDRFSGSGSGTDFTLTISSLQAEDVAVYYCQQNNEDPLTFGQGTKVEIKR
In turn, B10 came in with an equilibrium dissociation constant (Kd) in experiment [2] of 1.2 nM. This counts as single-digit nanomolar.

Values taken from patent publication US20170073430A1 (published 2017).
